# Assay results: paper PMC4254523
# Tests used:
# Assay in all cases: SPR
# [1] = molecular target: human FcγRII (CD32), CD32B (human) (UniProt P31994)
# [2] = molecular target: human FcγRII (CD32), CD32A-131H (human) (UniProt P12318)
# [3] = molecular target: human FcγRII (CD32), CD32A-131R (human)
# Sequence of UniProt P12318 (P12318 34-317): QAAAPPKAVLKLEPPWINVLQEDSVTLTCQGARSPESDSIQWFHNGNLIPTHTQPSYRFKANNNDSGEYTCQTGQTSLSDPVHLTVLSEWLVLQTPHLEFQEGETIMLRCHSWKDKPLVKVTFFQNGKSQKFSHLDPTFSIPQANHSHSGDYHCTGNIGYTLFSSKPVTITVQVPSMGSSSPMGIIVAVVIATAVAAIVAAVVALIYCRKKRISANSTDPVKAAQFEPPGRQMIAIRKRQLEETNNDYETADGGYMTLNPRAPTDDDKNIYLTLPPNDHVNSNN
# Sequence of UniProt P31994 (P31994 43-310): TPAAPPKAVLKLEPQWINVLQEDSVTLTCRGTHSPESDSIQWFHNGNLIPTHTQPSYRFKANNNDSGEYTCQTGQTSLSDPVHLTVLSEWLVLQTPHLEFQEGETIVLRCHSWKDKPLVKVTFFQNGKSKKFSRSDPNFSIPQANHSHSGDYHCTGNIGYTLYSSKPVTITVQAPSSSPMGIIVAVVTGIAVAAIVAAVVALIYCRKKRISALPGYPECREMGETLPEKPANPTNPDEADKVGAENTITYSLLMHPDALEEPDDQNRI
Ka [1] [M⁻¹],koff [1] [s⁻¹],kon [1] [M⁻¹ s⁻¹],Ka [2] [M⁻¹],koff [2] [s⁻¹],Ka [3] [M⁻¹],koff [3] [s⁻¹],kon [3] [M⁻¹ s⁻¹],Molecule
5660,2.03,11500,17300,1.1,,,,mouse 3F8 (IgG3) (antibody)
83700,0.341,28600,631000,0.427,,,,hu3F8 (IgG1) (antibody)
,,,,,368000,0.406,149000,"hu3F8 (IgG1) (antibody, V domains shown) VH: QVQLVESGPGVVQPGRSLRISCAVSGFSVTNYGVHWVRQPPGKGLEWLGVIWAGGITNYNSAFMSRLTISKDNSKNTVYLQMNSLRAEDTAMYYCASRGGHYGYALDYWGQGTLVTVSS VL: EIVMTQTPATLSVSAGERVTITCKASQSVSNDVTWYQQKPGQAPRLLIYSASNRYSGVPARFSGSGYGTEFTFTISSVQSEDFAVYFCQQDYSSFGQGTKLEIK"
,,,,,71500,0.363,25900,"mouse 3F8 (IgG3) (antibody, V domains shown) VH: QVQLKESGPGLVAPSQSLSITCTVSGFSVTNYGVHWVRQPPGKGLEWLGVIWAGGITNYNSAFMSRLSISKDNSKSQVFLKMNSLQIDDTAMYYCASRGGHYGYALDYWGQGTSVTVSS VL: SIVMTQTPKFLLVSAGDRVTITCKASQSVSNDVTWYQQKAGQSPKLLIYSASNRYSGVPDRFTGSGYGTAFTFTISTVQAEDLAVYFCQQDYSSFGGGTKLEIK"
